The values that follow come from patent US20250339569A1 (3B PHARMACEUTICALS, published 2025).

Starred links: 1 amine or outer side, 2 acyl side, 3 side chain; linkers in the order of their positions; H or OH if unused. Positions of bridges follow the written chain, without caps; N, C: chain ends. Non-standard residues stand in square brackets, D forms with d. Primed or numbered codes have the meaning given here. *: point of attachment. Aph(2Ta5Sa) = 4-aminophenylalanine, ring amine acylated with 5-sulfamoylthiophene-2-carboxylic acid, NS(=O)(=O)c1ccc(C(=O)Nc2ccc(C[C@H](N[*:1])C(=O)[*:2])cc2)s1; Aph(3Ta5Sa) = 4-aminophenylalanine, ring amine acylated with 5-sulfamoylthiophene-3-carboxylic acid, NS(=O)(=O)c1cc(C(=O)Nc2ccc(C[C@H](N[*:1])C(=O)[*:2])cc2)cs1; Af3(3MSaBz) = 3-aminophenylalanine, ring amine acylated with 3-(sulfamoylmethyl)benzoic acid, NS(=O)(=O)Cc1cccc(C(=O)Nc2cccc(C[C@H](N[*:1])C(=O)[*:2])c2)c1; Af3(HO-Glutar) = 3-aminophenylalanine acylated on the ring amine with glutaric acid (free COOH), O=C(CCCC(=O)[*:3])Nc1cccc(C[C@H](N[*:1])C(=O)[*:2])c1; Af3(3SaBz) = 3-aminophenylalanine, ring amine acylated with 3-sulfamoylbenzoic acid, NS(=O)(=O)c1cccc(C(=O)Nc2cccc(C[C@H](N[*:1])C(=O)[*:2])c2)c1; Af3(4SaBz) = 3-aminophenylalanine, ring amine acylated with 4-sulfamoylbenzoic acid, NS(=O)(=O)c1ccc(C(=O)Nc2cccc(C[C@H](N[*:1])C(=O)[*:2])c2)cc1; Aph(3SaBz) = 4-aminophenylalanine, ring amine acylated with 3-sulfamoylbenzoic acid, NS(=O)(=O)c1cccc(C(=O)Nc2ccc(C[C@H](N[*:1])C(=O)[*:2])cc2)c1; Aph(SaPr)(4) = 4-aminophenylalanine, ring amine acylated with 3-sulfamoylpropanoic acid, NS(=O)(=O)CCC(=O)Nc1ccc(C[C@H](N[*:1])C(=O)[*:2])cc1; Af3(SaPr) = 3-aminophenylalanine, ring amine acylated with 3-sulfamoylpropanoic acid, NS(=O)(=O)CCC(=O)Nc1cccc(C[C@H](N[*:1])C(=O)[*:2])c1; Af3(HO-Succinyl)″ = 3-aminophenylalanine, ring amine acylated with succinic acid, O=C(CCC(=O)[*:3])Nc1cccc(C[C@H](N[*:1])C(=O)[*:2])c1; DOTA(In) = O=C1CN2CCN3CCN(CC(=O)*)CCN(CC2)CC(=O)[O][In]([O]1)[O]C(=O)C3; Phe(3-NHCO(CH2)3SO2NH2) = N[C@@H](Cc1cccc(NC(=O)CCCS(N)(=O)=O)c1)C(=O)O; APAc″ = 2-(4-(amino)piperidin-1-yl)acetic acid, NC1CCN(CC(=O)*)CC1; DOTA = O=C(O)CN1CCN(CC(=O)O)CCN(CC(=O)*)CCN(CC(=O)O)CC1; mXylylene = c1cc(C[*:1])cc(C[*:2])c1; APAc = not defined here; Dap = NC[C@H](N)C(=O)O

One assay addresses T1, Fc-fusion protein of human carbonic anhydrase IX (human, UniProt Q16790 38-414). The assay is described as follows: SPR, captured hCAIX-Fc; pKD category A: >8.0. (In general: SPR reads the build-up and loss of mass on a sensor chip optically.)
For the molecule {DOTA-APAc″}-VYCE[dP]D[Af3(HO-Glutar)]LTWSC-NH2 (linker 3-12 via mXylylene) [3BP-4367], the pKD was more than 8 pkd.
For {DOTA-APAc}-VYCE[dP]D[Aph(2Ta5Sa)]LTWSC-NH2 (linker 3-12 via mXylylene; reading uncertain) [3BP-4402], the pKD is more than 8 pkd.
Still for that read-out and setting: with {DOTA-APAc}-VYCE[dP]D[Aph(3Ta5Sa)]LTWSC-NH2 (linker 3-12 via mXylylene; reading uncertain) [3BP-4401] the figure was more than 8 pkd; with {DOTA-APAc}-VYCE[dP]D[Af3(3MSaBz)]LTWSC-NH2 (linker 3-12 via mXylylene; reading uncertain) [3BP-4406], more than 8 pkd.
For {DOTA-APAc}-VYCE[dP]D[Aph(3SaBz)]LTWSC-NH2 (linker 3-12 via mXylylene; reading uncertain) [3BP-4408], the pKD is more than 8 pkd.
For the molecule {DOTA-APAc}-VYCE[dP]D[Af3(3SaBz)]LTWSC-NH2 (linker 3-12 via mXylylene; reading uncertain) [3BP-4409], the pKD is more than 8 pkd.
Still for that read-out and setting: the figure for {DOTA-APAc}-VYCE[dP]D[Af3(SaPr)]LTWSC-NH2 (linker 3-12 via mXylylene; reading uncertain) [3BP-4407] is more than 8 pkd.
{DOTA-APAc}-VDCE[dP]D[Af3(HO-Succinyl)″]LTW[Dap]C-NH2 (lactam 2-11; linker 3-12 via mXylylene; reading uncertain) [3BP-4377] registered a pKD of more than 8 pkd.
Molecule {DOTA-APAc}-VYCE[dP]D[Aph(SaPr)(4)]LTWSC-NH2 (linker 3-12 via mXylylene; reading uncertain) [3BP-4400] came in with a pKD of more than 8 pkd.
Regarding {DOTA-APAc}-VYCE[dP]D[Af3(4SaBz)]LTWSC-NH2 (linker 3-12 via mXylylene; reading uncertain) [3BP-4405], the pKD is more than 8 pkd.
{DOTA-APAc}-VYCE[dP]D[Phe(3-NHCO(CH2)3SO2NH2)]LTWSC-NH2 (linker 3-12 via mXylylene; reading uncertain) [3BP-4369] yielded a pKD of more than 8 pkd.

The target of another assay is T1, Fc-fusion protein of human carbonic …. As to the kind of experiment: SPR, captured hCAIX-Fc; t1/2 category A: >15.0 min. The protocol:
Stock solutions of test compounds were prepared by dissolving each compound in DMSO. DMSO stock solution were diluted 1:1000 in Running Buffer without DMSO. […] SPR binding analyses were performed in Single Cycle Kinetic (SCK) mode at 25° C.
For each test compound, SPR raw data in the form of resonance units (RU) were plotted as sensorgrams using the Biacore™ T200 control software. The signal from the blank sensorgram was subtracted from that of the test compound sensorgram (blank corrected). The blank corrected sensorgram was corrected for baseline drift by subtracting the sensorgram of a SCK run without the test compound (running buffer only). […] Raw data and fit results were imported as text files in IDBS. The pKD value (negative decadic logarithm of dissociation constant) was calculated in the IDBS excel template.
In the case of {DOTA-APAc″}-VYCE[dP]D[Af3(HO-Glutar)]LTWSC-NH2 (linker 3-12 via mXylylene) [3BP-4367], the “t1/2 (half-life of the complex, SPR)” value is more than 15 min.
Turning to {DOTA-APAc}-VYCE[dP]D[Aph(2Ta5Sa)]LTWSC-NH2 (linker 3-12 via mXylylene; reading uncertain) [3BP-4402], the “t1/2 (half-life of the complex, SPR)” value is more than 15 min.
As to {DOTA-APAc}-VYCE[dP]D[Aph(3Ta5Sa)]LTWSC-NH2 (linker 3-12 via mXylylene; reading uncertain) [3BP-4401], the “t1/2 (half-life of the complex, SPR)” value is more than 15 min.
Regarding {DOTA-APAc}-VYCE[dP]D[Af3(3MSaBz)]LTWSC-NH2 (linker 3-12 via mXylylene; reading uncertain) [3BP-4406], the “t1/2 (half-life of the complex, SPR)” value is more than 15 min.
For {DOTA-APAc}-VYCE[dP]D[Aph(3SaBz)]LTWSC-NH2 (linker 3-12 via mXylylene; reading uncertain) [3BP-4408], the “t1/2 (half-life of the complex, SPR)” value is more than 15 min.
Take {DOTA-APAc}-VYCE[dP]D[Af3(3SaBz)]LTWSC-NH2 (linker 3-12 via mXylylene; reading uncertain) [3BP-4409]: the “t1/2 (half-life of the complex, SPR)” value was more than 15 min.
The same measure, in the same setting: the figure for {DOTA-APAc}-VYCE[dP]D[Af3(SaPr)]LTWSC-NH2 (linker 3-12 via mXylylene; reading uncertain) [3BP-4407] is more than 15 min; for {DOTA-APAc}-VDCE[dP]D[Af3(HO-Succinyl)″]LTW[Dap]C-NH2 (lactam 2-11; linker 3-12 via mXylylene; reading uncertain) [3BP-4377] it is more than 15 min; for {DOTA-APAc}-VYCE[dP]D[Aph(SaPr)(4)]LTWSC-NH2 (linker 3-12 via mXylylene; reading uncertain) [3BP-4400] it is more than 15 min.
In the case of {DOTA-APAc}-VYCE[dP]D[Af3(4SaBz)]LTWSC-NH2 (linker 3-12 via mXylylene; reading uncertain) [3BP-4405], the “t1/2 (half-life of the complex, SPR)” value was more than 15 min.
Regarding {DOTA-APAc}-VYCE[dP]D[Phe(3-NHCO(CH2)3SO2NH2)]LTWSC-NH2 (linker 3-12 via mXylylene; reading uncertain) [3BP-4369], the “t1/2 (half-life of the complex, SPR)” value was more than 15 min.

The target in a further assay is human carbonic anhydrase IX (CAIX) (human, UniProt Q16790 38-459). As to the kind of experiment: FACS competition, HT-29 cells, tracer 3BP-4149; pIC50 category A: >8.0. How it is done: (§1) CAIX-expressing human HT-29 colorectal cancer cells (DSMZ, RRID: CVCL_0320) were cultured in McCoys's 5A modified medium (Biochrom, #F1015) including 10% fetal calf serum (FCS), 2 mM L-glutamine, 100 U/ml penicillin and 100 μg/mL streptomycin. Cells were detached with Accutase (Biolegend, #423201) and washed in FACS buffer (PBS including 1% FCS). Cells were diluted in FACS buffer to a final concentration of 500.000 cells per ml. 200 μL of the cell suspension were transferred to a u-shaped non-binding 96-well plate (Greiner) and cells were washed in ice-cold FACS buffer.
(§2) When biotinylated compounds were used an additional incubation step with 1 μg/mL APC-Streptavidin (Miltenyi; #130-106-791) in 50 μL FACS buffer for 30 minutes on ice was performed.
(§3) Cells were washed twice with ice-cold FACS buffer and analyzed in an Attune NxT flow cytometer (Thermo Fisher). Median fluorescence intensities (MFI) of the APC/Cy5-channel were calculated by Attune NxT software.
For {DOTA-APAc″}-VYCE[dP]D[Af3(HO-Glutar)]LTWSC-NH2 (linker 3-12 via mXylylene) [3BP-4367], the pIC50 was more than 8 pic50.
The molecule {DOTA-APAc}-VYCE[dP]D[Aph(2Ta5Sa)]LTWSC-NH2 (linker 3-12 via mXylylene; reading uncertain) [3BP-4402] yielded a pIC50 of more than 8 pic50.
In the case of {DOTA-APAc}-VYCE[dP]D[Aph(3Ta5Sa)]LTWSC-NH2 (linker 3-12 via mXylylene; reading uncertain) [3BP-4401], the pIC50 was more than 8 pic50.
The molecule {DOTA-APAc}-VYCE[dP]D[Af3(3MSaBz)]LTWSC-NH2 (linker 3-12 via mXylylene; reading uncertain) [3BP-4406] returned a pIC50 of more than 8 pic50.
As for {DOTA-APAc}-VYCE[dP]D[Aph(3SaBz)]LTWSC-NH2 (linker 3-12 via mXylylene; reading uncertain) [3BP-4408], the pIC50 was more than 8 pic50.
Still for that read-out and setting: with {DOTA-APAc}-VYCE[dP]D[Af3(3SaBz)]LTWSC-NH2 (linker 3-12 via mXylylene; reading uncertain) [3BP-4409] the figure was more than 8 pic50; with {DOTA-APAc}-VYCE[dP]D[Af3(SaPr)]LTWSC-NH2 (linker 3-12 via mXylylene; reading uncertain) [3BP-4407], more than 8 pic50; with {DOTA-APAc}-VDCE[dP]D[Af3(HO-Succinyl)″]LTW[Dap]C-NH2 (lactam 2-11; linker 3-12 via mXylylene; reading uncertain) [3BP-4377], more than 8 pic50.
As for {DOTA-APAc}-VYCE[dP]D[Aph(SaPr)(4)]LTWSC-NH2 (linker 3-12 via mXylylene; reading uncertain) [3BP-4400], the pIC50 is more than 8 pic50.
The molecule {DOTA-APAc}-VYCE[dP]D[Af3(4SaBz)]LTWSC-NH2 (linker 3-12 via mXylylene; reading uncertain) [3BP-4405] had a pIC50 of more than 8 pic50.
Still for that read-out and setting: the figure for {DOTA-APAc}-VYCE[dP]D[Phe(3-NHCO(CH2)3SO2NH2)]LTWSC-NH2 (linker 3-12 via mXylylene; reading uncertain) [3BP-4369] is more than 8 pic50.

The next assay addresses human carbonic anhydrase 9 (CAIX) (human, UniProt Q16790 38-459). The assay is described as follows: FACS competition on HT-29 cells, competitor tracer 3BP-2776; category B = pIC50 7.1-8.0. How it is done: as §1, §2, §3
Molecule {DOTA(In)}-YCE[dP]KWLEWSC-NH2 (linker 2-11 via mXylylene; lactam 5-8; also: indium complexed by DOTA) [3BP-4053] registered a pIC50 of 7.1 to 8 pic50.
